To fix the notation:
B1: Ref062 [NGM707, cross-specific] (antibody, from another filing, V domains shown)
VH: QVQLVQSGAEVKKPGASVKVSCKASGYTFTDYYINWVRQAPGQGLEWMGNVNPNDGGTTYNQKFKGRVTMTTDTSTSTAYMELRSLRSDDTAVYYCARREIYFYGTIYYYAMDYWGQGTLVTVSS
VL: DIQLTQSPSFLSASVGDRVTITCRASESVDYYGNSFMYWYQQKPGKAPKLLIYFASNLESGVPSRFSGSGSGTEFTLTISSLQPEDFATYYCQQNNEDPWTFGGGTKVEIKR
B2: Ref047 [MK-4830, LILRB2 specific] (antibody, from another filing, V domains shown)
VH: EVQLQQWGAGLLKPSETLSLTCAVYGGSFSGYYWSWIRQPPGKGLEWIGEINHAGSTNYNPSLKSRVTISVDTSKNQFSLKLSSVTAADTAVYYCARLPTRWVTTRYFDLWGRGTLVTVSS
VL: ESVLTQPPSVSGAPGQRVTISCTGSSSNIGAGYDVHWYQQLPGTAPKLLIYGDSNRPSGVPDRFSVSKSGASASLAITGLQAEDEADYYCQSFDNSLSAYVFGGGTQLTVL
B3: A-045 (antibody, V domains shown)
VH: QVQLVQSGAEVKKPGSSVKVSCKASGGTFQSQAFAWVRQAPGQGLEWMGSIIPGFSTANYAQKFQGRVTITADESTSTAYMELSSLRSEDTAVYYCAKDLGTYSSGWPYYYGMDVWGQGTTVTVSS
VL: SYELTQPPSVSVSPGQTASITCSGDKLGDKYASWYQQKPGQSPVLVIYQDSKRPSGIPERFSGSNSGNTATLTISGTQAEDEADYYCQLTHLTIYVFGGGTKLTVL
notes: tested as IgG; HC of A-010 and LC of A-036
B4: A-047 (antibody, V domains shown)
VH: QVQLVQSGAEVKKPGSSVKVSCKASGYTFSKSAMSWVRQAPGQGLEWMGGIVPKFHTSVYAQKFQGRVTITADESTSTAYMELSSLRSEDTAVYYCAKGPPVGSSSWYTDWYFDLWGRGTLVTVSS
VL: SYELTQPPSVSVSPGQTASITCSGDKLGDKYASWYQQKPGQSPVLVIYQDSKRPSGIPERFSGSNSGNTATLTISGTQAEDEADYYCSLYGAGHTVVFGGGTKLTVL
notes: tested as IgG
B5: A-038 (antibody, V domains shown)
VH: B4 VH with Y27G, K31S, S32Y, M34I, V52I, K54I, H56G, S58A, V59N
VL: B4 VL
notes: tested as IgG
B6: A-048 (antibody, V domains shown)
VH: B4 VH
VL: B4 VL with S88A, A92G
notes: tested as IgG
B7: A-040 (antibody, V domains shown)
VH: B4 VH with Y27G, K31S, S32Y, M34I, V52I, K54I, H56G, S58A, V59N
VL: B4 VL with A92P, G93A, V96G
notes: tested as IgG
B8: A-041 (antibody, V domains shown)
VH: B4 VH with Y27G, K31S, S32Y, M34I, V52I, K54I, H56G, S58A, V59N
VL: B4 VL with L89S, A92S, H94L
notes: tested as IgG
B9: A-039 (antibody, V domains shown)
VH: B4 VH with Y27G, K31S, S32Y, M34I, V52I, K54I, H56G, S58A, V59N
VL: B4 VL with S88A, A92G
notes: tested as IgG

Results on ten molecules are retold here after patent US20260209345A1 (IOMX THERAPEUTICS, published 2026).

Positions count from the first letter of the chain named.

T4 sequence (O75019 17-461 limits assumed): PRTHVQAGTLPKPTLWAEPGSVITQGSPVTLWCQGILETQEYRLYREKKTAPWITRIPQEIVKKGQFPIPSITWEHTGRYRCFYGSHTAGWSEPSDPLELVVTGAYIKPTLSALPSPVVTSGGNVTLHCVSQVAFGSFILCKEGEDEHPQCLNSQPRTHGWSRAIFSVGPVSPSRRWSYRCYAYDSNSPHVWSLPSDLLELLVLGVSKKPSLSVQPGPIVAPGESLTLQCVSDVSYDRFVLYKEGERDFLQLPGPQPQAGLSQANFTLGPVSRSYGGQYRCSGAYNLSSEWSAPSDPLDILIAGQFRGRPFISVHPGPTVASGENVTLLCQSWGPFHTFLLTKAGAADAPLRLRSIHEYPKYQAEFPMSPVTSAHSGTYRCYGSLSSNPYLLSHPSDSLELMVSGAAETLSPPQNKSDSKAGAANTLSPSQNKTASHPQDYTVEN
T3 sequence (Q8N423 22-460 limits assumed): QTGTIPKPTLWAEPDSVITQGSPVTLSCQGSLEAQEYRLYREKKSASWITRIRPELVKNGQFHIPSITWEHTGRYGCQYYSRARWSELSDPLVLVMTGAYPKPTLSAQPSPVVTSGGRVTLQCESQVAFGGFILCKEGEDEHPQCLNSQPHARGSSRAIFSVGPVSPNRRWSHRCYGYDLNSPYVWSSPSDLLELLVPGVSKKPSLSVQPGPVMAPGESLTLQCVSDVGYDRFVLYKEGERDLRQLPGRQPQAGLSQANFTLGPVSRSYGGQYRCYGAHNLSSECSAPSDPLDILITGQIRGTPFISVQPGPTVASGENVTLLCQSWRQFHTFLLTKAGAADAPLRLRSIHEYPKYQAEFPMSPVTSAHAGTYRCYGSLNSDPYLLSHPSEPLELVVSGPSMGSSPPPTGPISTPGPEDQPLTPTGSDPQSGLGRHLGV
T2 sequence (Q8NHL6 24-461 limits assumed): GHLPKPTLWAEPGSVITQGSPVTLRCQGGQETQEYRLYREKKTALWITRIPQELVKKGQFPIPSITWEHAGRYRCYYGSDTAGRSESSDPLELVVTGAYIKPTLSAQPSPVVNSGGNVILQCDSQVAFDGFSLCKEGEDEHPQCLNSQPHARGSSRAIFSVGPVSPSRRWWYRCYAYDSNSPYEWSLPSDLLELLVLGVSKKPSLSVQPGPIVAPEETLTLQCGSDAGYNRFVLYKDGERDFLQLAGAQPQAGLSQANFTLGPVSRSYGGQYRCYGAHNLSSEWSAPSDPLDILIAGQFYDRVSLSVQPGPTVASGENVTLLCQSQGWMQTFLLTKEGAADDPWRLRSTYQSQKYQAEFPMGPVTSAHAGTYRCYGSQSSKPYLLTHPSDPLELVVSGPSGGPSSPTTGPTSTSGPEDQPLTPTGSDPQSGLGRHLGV
LILRB1 on transiently transfected Expi293 cells, sequence (Q8NHL6 24-650 limits assumed): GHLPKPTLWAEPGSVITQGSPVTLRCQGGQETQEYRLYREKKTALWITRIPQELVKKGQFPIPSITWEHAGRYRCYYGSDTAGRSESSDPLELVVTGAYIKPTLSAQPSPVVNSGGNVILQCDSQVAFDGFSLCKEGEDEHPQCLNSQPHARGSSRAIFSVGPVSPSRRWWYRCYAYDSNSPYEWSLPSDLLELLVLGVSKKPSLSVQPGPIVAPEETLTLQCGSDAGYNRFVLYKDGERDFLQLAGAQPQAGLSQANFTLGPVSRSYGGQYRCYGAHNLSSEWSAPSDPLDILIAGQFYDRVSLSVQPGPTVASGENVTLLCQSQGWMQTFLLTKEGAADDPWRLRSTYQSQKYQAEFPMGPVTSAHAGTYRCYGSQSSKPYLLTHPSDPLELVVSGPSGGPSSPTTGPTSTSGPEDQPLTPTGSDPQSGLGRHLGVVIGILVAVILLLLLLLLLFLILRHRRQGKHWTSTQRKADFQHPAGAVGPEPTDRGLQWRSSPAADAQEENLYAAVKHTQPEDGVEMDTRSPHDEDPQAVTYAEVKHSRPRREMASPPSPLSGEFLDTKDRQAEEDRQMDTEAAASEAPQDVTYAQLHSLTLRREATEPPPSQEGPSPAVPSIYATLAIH
LILRB2 on transiently transfected Expi293 cells, sequence (Q8N423 22-597 limits assumed): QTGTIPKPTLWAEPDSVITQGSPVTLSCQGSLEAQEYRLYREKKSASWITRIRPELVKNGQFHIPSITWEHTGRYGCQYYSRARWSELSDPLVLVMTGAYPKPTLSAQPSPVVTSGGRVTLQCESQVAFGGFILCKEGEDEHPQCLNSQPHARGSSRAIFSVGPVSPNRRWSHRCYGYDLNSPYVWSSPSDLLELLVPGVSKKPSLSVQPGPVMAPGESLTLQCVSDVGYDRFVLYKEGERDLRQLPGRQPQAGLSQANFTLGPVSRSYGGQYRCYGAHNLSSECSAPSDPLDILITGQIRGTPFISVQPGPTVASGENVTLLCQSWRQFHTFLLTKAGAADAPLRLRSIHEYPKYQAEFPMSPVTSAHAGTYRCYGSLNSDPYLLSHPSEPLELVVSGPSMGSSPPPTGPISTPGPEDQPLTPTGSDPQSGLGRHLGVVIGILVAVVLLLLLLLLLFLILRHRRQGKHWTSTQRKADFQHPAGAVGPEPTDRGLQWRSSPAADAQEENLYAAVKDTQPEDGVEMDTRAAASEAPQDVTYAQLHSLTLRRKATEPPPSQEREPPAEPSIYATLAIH
LILRA1 on transiently transfected Expi293 cells (human), sequence (O75019 17-489 limits assumed): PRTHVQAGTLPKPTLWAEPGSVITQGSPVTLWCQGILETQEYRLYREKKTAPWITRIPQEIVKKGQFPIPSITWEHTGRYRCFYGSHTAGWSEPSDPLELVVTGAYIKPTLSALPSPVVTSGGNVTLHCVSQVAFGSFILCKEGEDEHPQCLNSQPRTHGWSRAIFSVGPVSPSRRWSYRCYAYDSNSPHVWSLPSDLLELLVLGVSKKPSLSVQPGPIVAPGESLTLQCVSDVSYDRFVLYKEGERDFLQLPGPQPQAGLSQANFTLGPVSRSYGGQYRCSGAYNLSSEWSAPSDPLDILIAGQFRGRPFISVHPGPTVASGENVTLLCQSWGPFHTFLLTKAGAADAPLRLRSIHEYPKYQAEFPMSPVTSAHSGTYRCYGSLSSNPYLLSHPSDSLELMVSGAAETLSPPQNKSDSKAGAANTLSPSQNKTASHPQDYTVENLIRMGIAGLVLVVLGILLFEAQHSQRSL

The first assay deals with LILRB2 on Jurkat reporter cells (ILT4/HLA-G Blockade Bioassay Kit, Promega) (human) (UniProt Q8N423). The experiment in a line: cell-based or functional assay.
LILRB2 on Jurkat reporter cells (ILT4/HLA-G Blockade Bioassay Kit, Promega) (human), sequence (Q8N423 22-597 limits assumed): as the sequence (Q8N423 22-597 limits assumed) above
In turn, B1 gave a luminescence of LILRB2-expressing Jurkat reporter cells with HLA-G expressing APC/CHO-K1 cells (ILT4/HLA-G Blockade Bioassay) of 0.9 nM.

The target in another assay is LILRB2 on primary monocytes (human) (UniProt Q8N423). The experiment in a line: flow cytometry, primary monocytes.
LILRB2 on primary monocytes (human), sequence (Q8N423 22-597 limits assumed): as above
The EC50 is the concentration needed to bring the measured effect to its halfway point. A lower EC50 goes with an effect from little substance. B2 displayed an EC50 of 1 nM.

Another assay has as its target LILRA1 on transiently transfected Expi293 cells (human) (UniProt O75019). The experiment in a line: flow cytometry, transfected Expi293 cells. In general terms: In flow cytometry, cells or beads pass a laser one at a time.
Turning to B1, the EC50 was determined as 3.7 nM.

The target of the next assay is LILRA3 on transiently transfected Expi293 cells (human) (UniProt Q8N6C8). In words: flow cytometry, transfected Expi293 cells.
LILRA3 on transiently transfected Expi293 cells (human), sequence (Q8N6C8 24-439 limits assumed): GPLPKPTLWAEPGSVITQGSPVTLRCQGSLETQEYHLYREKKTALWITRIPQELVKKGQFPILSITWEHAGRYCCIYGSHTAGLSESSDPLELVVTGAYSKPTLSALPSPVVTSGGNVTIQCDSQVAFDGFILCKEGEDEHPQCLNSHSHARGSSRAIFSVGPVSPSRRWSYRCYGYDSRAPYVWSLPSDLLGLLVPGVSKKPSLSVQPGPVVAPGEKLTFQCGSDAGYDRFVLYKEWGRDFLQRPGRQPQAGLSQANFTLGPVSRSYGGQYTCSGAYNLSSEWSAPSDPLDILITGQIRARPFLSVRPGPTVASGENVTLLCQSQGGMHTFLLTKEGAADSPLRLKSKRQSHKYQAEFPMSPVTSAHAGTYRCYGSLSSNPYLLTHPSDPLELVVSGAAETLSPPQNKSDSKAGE
As for B1, the concentration for a half-maximal effect (EC50) is 7.8 nM.

A further assay deals with LILRB1 on transiently transfected Expi293 cells (human) (UniProt Q8NHL6). The experiment in a line: flow cytometry, transfected Expi293 cells.
LILRB1 on transiently transfected Expi293 cells (human), sequence (Q8NHL6 24-650 limits assumed): as the sequence (Q8NHL6 24-650 limits assumed) above
As for B1, the EC50 came out at 9.1 nM. That is a single-digit nanomolar value.

In a further assay the target is LILRB2 on transiently transfected Expi293 cells (human) (UniProt Q8N423). In words: flow cytometry, transfected Expi293 cells.
LILRB2 on transiently transfected Expi293 cells (human), sequence (Q8N423 22-597 limits assumed): as the sequence (Q8N423 22-597 limits assumed) above
For the molecule B1, the EC50 was found to be 17.3 nM.

In turn, B2 showed an EC50 of 1.7 nM.

The next assay deals with LILRB1 on transiently transfected Expi293 cells (human, UniProt Q8NHL6 24-650). The experiment in a line: flow cytometry, transfected Expi293 cells. The procedure:
(§1) Non-transfected Expi293 cells were used as negative control. Cells were harvested and labeled with CellTraceViolet for multiplexing. […] Subsequently, cells were washed and stained with a secondary anti-human IgG labeled with AF647 for 30 minutes at 4° C. in the dark. Cells were washed again and mixed with 7-AAD viability dye before flow acquisition to test for surface binding.
In the case of B3, the EC50 turned out to be 1.5 nM.

Another assay addresses LILRB2 on transiently transfected Expi293 cells (human, UniProt Q8N423 22-597). The experiment in a line: flow cytometry, transfected Expi293 cells. Here is the method:
as §1
B3 had an EC50 of 1.3 nM.

The target of another assay is T1, LILRA2 on transiently transfected Expi293 cells (human, UniProt Q8N149 24-483).
T1 construct: whole, on cells
T1 sequence (Q8N149 24-483): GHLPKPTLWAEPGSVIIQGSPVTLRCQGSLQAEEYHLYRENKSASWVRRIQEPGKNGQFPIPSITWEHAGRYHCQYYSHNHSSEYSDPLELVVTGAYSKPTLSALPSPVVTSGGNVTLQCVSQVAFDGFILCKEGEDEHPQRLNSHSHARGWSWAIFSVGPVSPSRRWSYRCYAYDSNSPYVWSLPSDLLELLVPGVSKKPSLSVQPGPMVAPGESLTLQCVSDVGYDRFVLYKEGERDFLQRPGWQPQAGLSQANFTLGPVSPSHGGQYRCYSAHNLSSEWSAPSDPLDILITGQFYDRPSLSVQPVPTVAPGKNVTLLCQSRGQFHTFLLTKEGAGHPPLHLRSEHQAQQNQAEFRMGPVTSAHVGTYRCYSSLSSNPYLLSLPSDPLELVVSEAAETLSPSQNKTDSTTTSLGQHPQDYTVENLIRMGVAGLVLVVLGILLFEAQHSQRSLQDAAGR
In words: flow cytometry, transfected Expi293 cells. The procedure:
as §1
B3: the binding result is “no binding”.

Another assay concerns the target T2, recombinant LILRB1 ECD (human, UniProt Q8NHL6 24-461).
T2 construct: also called biotinylated LILRB1 ECD
In words: ELISA, LILRB1 ECD binding to HLA-G-Fc. The procedure: (§2) HLA-G inhibition was tested by ELISA. 384-well Maxisorp plates were coated with 2 ug/mL B2M-HLA-G fused to a mouse IgG2a-Fc and the plates were blocked with 2% (w/v) BSA in PBST. […] 15 ul of the antibody dilution series (300 nM to 0.3 nM) were mixed with 30 μL of the pre-mixed LILRB/Avidin-HRP solution (final antibody concentration 100 nM to 0.1 nM) and incubated for 1 h at room temperature. After three wash cycles with PBST, 20 μL of the antibody/LILRB/Avidin-HRP solution was transferred to the plate with immobilized HLA-G and incubated for 15 min at room temperature. After three wash cycles with PBST, residual LILRB binding to HLA-G was detected by developing the ELISA with TMB substrate.
(In general: An ELISA detects its analyte on a solid surface through an enzyme-linked reagent.)
A word on the IC50: it is the concentration that inhibits the measured activity by half. B4: the IC50 came out at 1.9 nM.

As to B5, the IC50 stood at 2.2 nM.

Consider B6, for which the IC50 amounted to 2 nM.

Consider B7, for which the IC50 came out at 2.1 nM.

With B8, the IC50 is 1.5 nM.

With B9, the IC50 stood at 2 nM.

Consider B1, for which the IC50 amounted to 5.7 nM.

B3: the IC50 amounted to 2.1 nM.

The next assay addresses T3, recombinant LILRB2 ECD (human, UniProt Q8N423 22-460).
T3 construct: also called biotinylated LILRB2 ECD
The experiment in a line: ELISA, LILRB2 ECD binding to HLA-G-Fc. Here is the method:
as §2
As for B4, the IC50 came out at 4.6 nM.

With B5, the IC50 was determined as 3.4 nM.

On to B6, for which the IC50 came out at 4.1 nM.

Regarding B7, the IC50 was 7 nM.

With B8, the IC50 was determined as 4.4 nM.

With B9, the IC50 worked out at 2.4 nM.

Consider B1, for which the IC50 was 4.7 nM.

Consider B3, for which the IC50 stood at 3.5 nM.

Take B2: the IC50 came out at 3.1 nM.

A further assay has as its target T3, recombinant LILRB2 ECD. In words: BLI, IgG on AHC sensor, ECD in solution. The procedure:
(§3) Briefly, IgGs were captured on anti-human capture (AHC) biosensors (Sartorius). […] Subsequently, the sensors were dipped into 1× Kinetics Buffer to measure the dissociation over 420 s. All sensorgrams were double referenced against 1× Kinetics Buffer and unloaded […] sensors to subtract sensor drifts and potential reference binding of the analytes. The affinities were determined by applying a 1:1 binding model.
Background: In BLI a coated tip is dipped into the sample, and binding shifts an interference pattern.
As usually defined, the Kd is the constant that tells how readily two partners part at equilibrium. As for B4, the Kd amounted to 1.7 nM.

B5: the Kd is 4.8 nM.

On to B6, for which the Kd was determined as 5.6 nM.

As to B7, the Kd was 0.3 nM.

On to B8, for which the Kd came to 5.8 nM.

As to B9, the dissociation constant (Kd) came out at 13.7 nM.

For the molecule B1, the Kd is 0.4 nM.

Take B3: the Kd came to 2.8 nM.

With B2, the Kd is 3.4 nM.

The target of a further assay is T2, recombinant LILRB1 ECD. The experiment in a line: BLI, IgG on AHC sensor, ECD in solution. Here is the method:
as §3
Turning to B4, the Kd came to 2.6 nM.

In the case of B5, the Kd is 6.7 nM.

On to B6, for which the Kd was 8.7 nM.

For the molecule B7, the Kd is 6.6 nM.

With B8, the Kd came to 17.5 nM.

For B9, the Kd was determined as 21.6 nM.

Take B1: the Kd was determined as 0.5 nM.

Consider B3, for which the Kd was 2.3 nM.

A further assay concerns the target T4, recombinant LILRA1 ECD (human, UniProt O75019 17-461).
T4 construct: whole canonical entry named; also called LILA1
The experiment in a line: BLI, IgG on AHC sensor, ECD in solution. The procedure:
as §3
Regarding B4, the Kd was 128 nM.

As for B5, the Kd came out at 209 nM.

Turning to B6, the equilibrium dissociation constant (Kd) is 1070 nM.

Regarding B7, the Kd came out at 51.6 nM.

On to B8, for which the Kd was 242 nM.

For the molecule B9, the Kd stood at 1030 nM.

Take B1: the Kd was 0.6 nM.

The target in a further assay is T5, recombinant LILRA3 (human, UniProt Q8N6C8 24-439).
T5 construct: whole entry named; also called LILRA3 ECD; LILA3
T5 sequence (Q8N6C8 24-439 limits assumed): as the sequence (Q8N6C8 24-439 limits assumed) above
The experiment in a line: BLI, IgG on AHC sensor, ECD in solution. Here is the method:
as §3
Take B4: the Kd stood at 318 nM.

B5: the Kd was 448 nM.

With B6, the Kd is 1970 nM.

For B7, the Kd was determined as 345 nM.

Turning to B8, the Kd was 465 nM.

Turning to B9, the equilibrium dissociation constant (Kd) is 1550 nM.

Turning to B1, the Kd came to 1.4 nM.

Another assay has as its target T5, recombinant LILRA3. The experiment in a line: BLI, IgG on AHC sensor, ECD in solution; biochemical assay, monovalent KD on recombinant protein (Table 2): weak off-target binding, 575 nM. The procedure: as §3
Consider B3, for which the Kd came to 575 nM.

The target of a further assay is T4, recombinant LILRA1 ECD. In words: BLI, IgG on AHC sensor, ECD in solution; biochemical assay, monovalent KD on recombinant protein (Table 2): weak off-target binding, 962 nM. The procedure: as §3
As for B3, the Kd amounted to 962 nM.

The target in a further assay is T3, recombinant LILRB2 ECD. The experiment in a line: competition ELISA (Example 3): biotinylated LILRB2 ECD with avidin-HRP pre-incubated with antibody 0.1-100 nM, residual binding to coated B2M-HLA-G-mouse IgG2a-Fc; blocked ligand HLA-G.
For “Ref065 [IO-108, LILRB2 specific] (antibody)”, the IC50 (read off the curve) is 3 nM.
